{"source": "patent US20160340422A1", "about": "(BEIJING HANMI PHARMACEUTICAL, published 2016)", "binders": {"B1": {"name": "Control antibody A (antibody, mouse IgG2a, kappa, V domains shown)", "VH": "QVQLKESGPGLVQPSQTLSLTCTVSGFSLTNYYVHWVRQPPGKGLEWMGGVWNDGDTSYNSVLRSRLSITRDTSKSQVLLKMSSLQTEDTATYYCAREGREGFVGYYVMDAWGPGASVTVSS", "VL": "DIQMTQSPSFLSASVGERVTLSCKASQNINKYLDWFQQKLGEAPKLLIYNADNLHTGIPSRFSGSGSFSDFILTISSLQPEDDATYFCLQRESWPYTFGAGTKLELKR", "notes": "Corresponds to the anti-IL-17A antibody moiety of bifunctional fusion proteins A and C; also called anti-IL-17A antibody (rat 1D10 variable region, mouse IgG2a constant region); anti-IL-17A mAb"}}, "key": {"[1]": {"target": "Human IL-17A (human, UniProt Q16552 24-155)", "sequence (Q16552 24-155 limits assumed)": "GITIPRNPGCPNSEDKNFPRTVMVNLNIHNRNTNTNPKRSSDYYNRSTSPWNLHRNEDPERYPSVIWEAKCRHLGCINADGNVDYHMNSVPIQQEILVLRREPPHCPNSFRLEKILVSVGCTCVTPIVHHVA", "experiment": "cell-based or functional assay"}, "[2]": {"target": "T1, Mouse IL-17A (mouse, UniProt Q62386 26-158, limits assumed)", "T1 construct": "Bought recombinant protein; also called mice IL-17A", "T1 sequence (looked up)": "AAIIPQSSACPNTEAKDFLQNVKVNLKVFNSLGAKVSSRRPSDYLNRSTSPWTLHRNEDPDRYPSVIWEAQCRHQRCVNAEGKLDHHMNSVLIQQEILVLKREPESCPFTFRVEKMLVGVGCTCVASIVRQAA", "experiment": "ELISA, coated mouse IL-17A, HRP anti-mouse IgG", "experimental": "The plated is blocked with PBST comprising 1% BSA, 300 μL/well, and incubated at 25° C. for at least 1 hour. The plate is washed with PBST for 5 times. Samples to be tested is added at a specific concentration, which are diluted in PBST comprising 1% BSA, 100 μL/well, and incubated at 25° C. for 1 hour. The plate is washed with PBST for 5 times. Then a horse radish peroxidase labeled anti-mouse IgG antibody (1:10,000, in PEST comprising 1% BSA) (Abeam, product No. Ab7068) is added, 100 U L/well, and incubated at 25° C. for 1 hour. The plate is washed with PBST for 5 times. […] 1M H₂SO₄is added with 100 μL/well to terminate the colorimetric development. The Absorbance at 450 nm is read on ELISA."}}, "data": [{"binder": "B1", "values": [{"measurement": "IC50 for inhibiting GROα secretion from HT-29 cells induced by IL-17A", "setting": "[1]", "value": 0.532, "unit": "nM"}, {"measurement": "binding result", "setting": "[2]", "value": "binds"}]}]}
